Source: patent publication US20100028924A1, “Method Of Diagnosing Pon1-Hdl Associated Lipid Disorders” (Rappaport Family Institute Research in the Medical Sciences, priority 2006, published 2010)
Where a chain is given by its changes, count along the chain named.

B1: wt rePON1-192K: recombinant wild-type PON1 variant G3C9 with C-terminal His8-tag, lysine at position 192, close homologue of rabbit PON1 (protein)
chain: MAKLTALTLLGLGLALFDGQKSSFQTRFNVHREVTPVELPNCNLVKGVDNGSEDLEILPNGLAFISSGLKYPGIMSFDPDKSGKILLMDLNEEDPVVLELGITGNTLDISSFNPHGISTFTDEDNTVYLLVVNHPDSSSTVEVFKFQEEEKSLLHLKTIRHKLLPSVNDIVAVGPEHFYATNDHYFADPYLKSWEMHLGLAWSFVTYYSPNDVRVVAEGFDFANGINISPDGKYVYIAELLAHKIHVYEKHANWTLTPLKSLDFDTLVDNISVDPVTGDLWVGCHPNGMRIFYYDPKNPPGSEVLRIQDILSEEPKVTVVYAENGTVLQGSTVAAVYKGKLLIGTVFHKALYCEL
modifications: C-terminal His8 tag; WT rePON1-192K
notes: recombinant wild-type PON1 variant G3C9 with C-terminal His8-tag, lysine at position 192, close homologue of rabbit PON1
B2: rePON1-192R: recombinant PON1 with arginine at position 192, generated to mimic the human R isozyme (protein)
chain: B1 chain with K192R
modifications: rePON1-192R isozyme
notes: recombinant PON1 with arginine at position 192, generated to mimic the human R isozyme

Key:
apoA-I rHDL [1] = assay: Inactivation kinetics of rePON1 192 isozymes bound to rHDL-apoA-I (EDTA/β-mercaptoethanol, residual phenyl acetate hydrolysis); format: biochemical; settings: apoA-I rHDL, 50-fold molar excess; EDTA and β-mercaptoethanol, 37° C.
Method: (§1) FIG. 1 is a graph showing the inactivation kinetics of the wild-type rePON1-192K (SEQ ID NO:2), -192R (SEQ ID NO:4) and -192Q (SEQ ID NO:6) isozymes, bound to rHDL-apoA-I, or in buffer. Delipidated enzymes were incubated with a 50-fold excess of rHDL-apoA-I, or in activity buffer, and subjected to inactivation in the presence of EDTA (5 mM) and β-mercaptoethanol (10 mM) at 37° C. Residual activity at various time points was determined by initial rates of phenyl acetate hydrolysis (2 mM) and plotted as percent of the activity at time zero. Data were fitted to a single exponential for wild-type rePON1-192K on rHDL-apoA-I, and to double-exponentials for the remaining samples. The inactivation rate constants and amplitudes were derived from this fit;
(§2) Inactivation rates of rePON1s were measured as described [Gaidukov, L. and D. S. Tawfik, Biochemistry, 2005. 44(35): p. 11843-54]. Briefly, rePON1 samples were delipidated using Bio-Beads SM-2 (BioRad) and incubated in buffer, or with 50-fold molar excess of rHDL-apoA-I. EDTA (10 mM) and β-mercaptoethanol (20 mM) were added, and samples were incubated at 37° C. Residual activity at different time points was determined with 2 mM phenyl acetate, and inactivation rates were fitted to either mono- or double-exponentials [Gaidukov, L. and D. S. Tawfik, Biochemistry, 2005. 44(35): p. 11843-54].
(§3) The resultant inactivation profiles of wt rePON1 (SEQ ID NO: 2), rePON1-192Q (SEQ ID NO: 6) and rePON1-192R (SEQ ID NO: 4), were fitted to exponential curves as illustrated in FIG. 1.

[2] = Inactivation kinetics of rePON1 192 isozymes in activity buffer; format: biochemical; settings: EDTA and β-mercaptoethanol, 37° C.
Method: as §1, §2, §3

apoA-I rHDL [3] = assay: Surface plasmon resonance binding of Δ20-rePON1 192 isozymes to immobilized rHDL-apoA-I; settings: relative to the Q isozyme
Method: FIGS. 2A-C are sensorgrams for the binding of wt Δ20-rePON1-192K—SEQ ID NO:8 (FIG. 2A), Δ20-rePON1-192R—SEQ ID NO:10 (FIG. 2B) and Δ20-rePON1-192Q—SEQ ID NO:12 (FIG. 2C) isozymes to rHDL-apoA-I. Biotinylated rHDL-apoA-I particles were immobilized onto the streptavidin surface (SA chip), and a series of PON1 concentrations were injected over the immobilized and blank surfaces to obtain the net binding response. Binding was performed at 25° C. Association and dissociation phases were fitted to a single exponential, from which kinetic rate constants were derived. PON1 concentrations in all the sensorgrams are (from bottom to top) 25, 40, 60, 80, 100, 150 and 200 nM;
Surface plasmon resonance (SPR) measurements: rHDL-apoA-I particles containing 0.7% of N-biotinyl-dipalmitoylphosphatidylethanolamine (N-biotynyl-DPPE; Avanti Polar Lipids) were prepared and purified as described [Gaidukov, L. and D. S. Tawfik, Biochemistry, 2005. 44(35): p. 11843-54]. SPR was performed on BIAcore 3000 (Uppsala, Sweden) as described [Gaidukov, L. and D. S. Tawfik, Biochemistry, 2005. 44(35): p. 11843-54]. Briefly, the biotinylated rHDL particles were adsorbed on streptavidin (SA5) chip, and Δ20-rePON1 isozymes were injected over the immobilized and blank surfaces to obtain the net binding response. Binding rate constants were obtained by fitting of association and dissociation phases to single exponentials as described [Gaidukov, L. and D. S. Tawfik, Biochemistry, 2005. 44(35): p. 11843-54].
The above results were further supported by affinity measurements using surface plasmon resonance. It was previously shown that HDL affinity of the intact rePON1 is very high (sub-nanomolar) and could not be determined accurately using surface plasmon resonance [Gaidukov, L., and Tawfik, D. S. (2005)Biochemistry 44, 11843-11854]. In contrast, binding affinity of the truncated variant lacking the first 20 amino acids of the hydrophobic N-terminus (Δ20-rePON1) could be amply determined. Therefore, the truncated variants of PON1 192 isozymes were prepared and their HDL binding affinities measured. Typical binding sensorgrams between Δ20-rePON1 isozymes and the immobilized HDL particles are portrayed in FIGS. 2A-C, and the derived rate and affinity constants are summarized in Table 2 herein below.

apoA-I rHDL [4] = assay: Stimulation of enzymatic activity of rePON1 192 isozymes by rHDL-apoA-I; format: biochemical; settings: for Vmax (%) activation factor: relative to delipidated enzyme (100%)
Excerpt: The activity is presented in relation to the initial activity of the delipidated enzymes (percentage of stimulation). Data were fitted to the Langmuir saturation curve, from which the activation factor (Vmax) and the apparent affinity (Kapp) were derived;
Stimulated activity is presented as the percentage of the initial activity of the delipidated enzymes (corresponds to 100%). Data were fitted to the Langmuir saturation curve, from which the activation factor (Vmax) and the apparent affinity (Kapp) were derived;
Delipidated rePONs at 0.2 μM were incubated with a range of rHDL concentrations (0.1-10 μM) for 3 hrs at 37° C. Enzymatic activity was determined in activity buffer (50 mM Tris pH 8.0, 1 mM CaCl2) with substrates at 1 mM concentrations as described [Gaidukov, L. and D. S. Tawfik, Biochemistry, 2005. 44(35): p. 11843-54]. 5-(thiobutyl)-butyrolactone (TBBL) was applied at 0.25 mM, and product formation was monitored spectrophotometrically at 412 nm using 5,5′-dithio-bis-2-nitrobenzoic acid (DTNB) as described [Khersonsky, O. and D. S. Tawfik, Chembiochem, 2006. 7(1): p. 49-53].
Stimulation of the enzymatic activity was examined by incubating rePON1 isozymes with a range of rHDL concentrations (at the HDL/PON ratio of 0.5-50), and measuring the catalytic activity with various substrates as detailed hereinabove. FIGS. 3A-B illustrate the enzymatic activity of the rePON1 isozymes with δ-nonanoic lactone as substrate (FIG. 3A) and thiobutyl butiryl lactone (TBBL) as substrate (FIG. 3B). FIGS. 4A-D illustrate the enzymatic activity of the rePON1 isozymes with γ-dodecanoic lactone as substrate (FIG. 4A), δ-valerolactone as substrate (FIG. 4B), phenyl acetate as substrate (FIG. 4C) and paraoxon as substrate (FIG. 4D). Data were fitted to the Langmuir saturation curve to give the activation factor Vmax (in percent relative to the delipidated PON1) and the apparent affinity Kapp.

apoA-I rHDL [5] = settings: previously shown; could not be determined accurately by SPR; cited from earlier work
[6] = substrate γ-dodecanoic lactone 1 mM
[7] = substrate δ-nonanoic lactone 1 mM

| Molecule | A2 (%) (amplitude of second, slow inactivation phase = HDL-bound fraction) (apoA-I rHDL [1]) | k2^inactiv (second, slow phase) (apoA-I rHDL [1]) [h⁻¹] | k1^inactiv (first, fast phase) [2] [h⁻¹] | k2^inactiv (second, slow phase) [2] [h⁻¹] | fold higher HDL binding affinity than the Q isozyme (apoA-I rHDL [3]) [fold] | Kapp (apparent affinity for HDL stimulation) (apoA-I rHDL [4]; substrate TBBL 0.25 mM) [µM] | Vmax (%) activation factor (apoA-I rHDL [4]; substrate TBBL 0.25 mM) [%] | Kapp (apparent affinity for HDL stimulation) (apoA-I rHDL [4]; substrate paraoxon 1 mM) [µM] | Vmax (%) activation factor (apoA-I rHDL [4]; substrate paraoxon 1 mM) [%] | Kapp (apparent affinity for HDL stimulation) (apoA-I rHDL [4]; substrate phenyl acetate 1 mM) [µM] | Vmax (%) activation factor (apoA-I rHDL [4]; substrate phenyl acetate 1 mM) [%] | Kapp (apparent affinity for HDL stimulation) (apoA-I rHDL [4]; [6]) [µM] | Vmax (%) activation factor (apoA-I rHDL [4]; [6]) [%] | Kapp (apparent affinity for HDL stimulation) (apoA-I rHDL [4]; [7]) [µM] | Vmax (%) activation factor (apoA-I rHDL [4]; [7]) [%] | Kapp (apparent affinity for HDL stimulation) (apoA-I rHDL [4]; substrate δ-valerolactone 1 mM) [µM] | Vmax (%) activation factor (apoA-I rHDL [4]; substrate δ-valerolactone 1 mM) [%] | HDL affinity of the intact rePON1 (apoA-I rHDL [5]) | k1^inactiv (first, fast phase) (apoA-I rHDL [1]) [h⁻¹] | reduction of Vmax compared to wt rePON1-192K (apoA-I rHDL [4]; all the substrates tested) |
| --- | --- | --- | --- | --- | --- | --- | --- | --- | --- | --- | --- | --- | --- | --- | --- | --- | --- | --- | --- | --- |
| B1 | 100 | 0.01 | 4.5 | 0.2 | 3 | 0.5 ± 0.1 | 791 ± 10 | 0.6 ± 0.1 | 222 ± 2 | 0.5 ± 0.1 | 425 ± 4 | 1.2 ± 0.1 | 1830 ± 22 | 1.3 ± 0.1 | 1580 ± 19 | 1.3 ± 0.1 | 1724 ± 23 | sub-nanomolar | – | – |
| B2 | 90 | 0.01 | 5.5 | 0.2 | – | 0.4 ± 0.1 | 579 ± 6 | – | 200 ± 1 | 0.8 ± 0.1 | 336 ± 4 | 0.9 ± 0.1 | 1258 ± 21 | 1.5 ± 0.1 | 1351 ± 20 | 1.1 ± 0.1 | 1403 ± 13 | – | 0.9 | 10-30% |
